Test results from US20190256600A1 (ANAPTYSBIO, published 2019).

What was measured:
[1] = target: T1, full length native human PD-1 (on stably transfected CHO-K1 cells; native on human PBMCs) (human, UniProt Q15116 25-288); experiment: flow cytometry on CHO-K1 cells stably expressing full length human PD-1; PE anti-human IgG4 detection
T1 construct: whole, on cells; The same entry is used for the CHO-K1 transfectants and for PD-1 natively expressed on human PBMCs; also called cell-surface human PD-1; human PD-1 CHO-K1 cells
T1 sequence (Q15116 25-288): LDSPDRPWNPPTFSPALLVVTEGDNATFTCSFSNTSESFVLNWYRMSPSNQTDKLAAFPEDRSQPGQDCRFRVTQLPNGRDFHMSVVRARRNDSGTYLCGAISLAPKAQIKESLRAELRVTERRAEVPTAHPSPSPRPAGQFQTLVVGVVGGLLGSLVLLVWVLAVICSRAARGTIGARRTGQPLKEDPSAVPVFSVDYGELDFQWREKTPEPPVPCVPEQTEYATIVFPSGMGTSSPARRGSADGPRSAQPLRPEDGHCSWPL
Description: (§1) Flow cytometry studies were performed with CHO-K1 cell line clones in which either full length native human or cynomolgus monkey PD-1 was stably transfected. An exemplary anti-PD-1 antibody (having heavy and light chains as set forth in SEQ ID NOs: 1 & 2, respectively) was diluted in 3-fold dilutions. Dilutions of exemplary antibody were added to human or cynomolgus monkey PD-1 expressing CHO-K1 cells (1E5 cells) and incubated on ice. Cells were washed twice and incubated on ice with PE-conjugated mouse anti-human IgG4 to detect antibody binding. Cells were washed and resuspended in the presence of propidium iodide to exclude dead cells and fixed and analyzed for fluorescence on a BD FACSArray instrument (BD Biosciences). Data were analyzed for median fluorescence intensity, graphed, and curves fitted for EC₅₀ value calculation in GraphPad Prism (GraphPad Software, Inc.) using a non-linear (sigmoidal) regression analysis.

[2] = target: T2, dimeric cynomolgus monkey PD-1 fusion protein (fused with mouse IgG2a Fc) (cynomolgus monkey; mouse, UniProt B0LAJ3 25-170); experiment: SPR (Biacore T200); cynomolgus monkey against human PD-1 fusion
T2 construct: Soluble dimeric analyte in SPR; also called cynomolgus PD-1; soluble PD-1 fusion
T2 sequence (B0LAJ3 entry or part of it limits assumed): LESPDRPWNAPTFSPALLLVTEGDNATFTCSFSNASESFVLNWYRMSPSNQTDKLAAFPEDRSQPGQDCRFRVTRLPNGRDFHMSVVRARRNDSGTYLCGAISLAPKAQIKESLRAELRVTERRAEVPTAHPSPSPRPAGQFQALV
Description: (§2) SPR analyses were carried out using a Biacore T200 system and kinetic constants were determined using Biacore T200 Evaluation software. […] GE anti-human IgG (Fc-specific) was immobilized on a Biacore CM5 chip. An exemplary anti-PD-1 antibody (having heavy and light chains as set forth in SEQ ID NOs: 1 & 2, respectively) was then captured onto this surface […]. Next, dimeric human or cynomolgus monkey PD-1 fusion proteins (fused with mouse IgG2a Fc) in a two-fold serial dilution series were flowed over the captured exemplary antibody and dissociation was monitored. Capture and analyte binding were performed in HBS-EP+ buffer. Chips were regenerated between each run using 3 M MgCl₂. The resulting sensorgrams were fitted globally using a 1:1 binding model to calculate on- and off-rates (kassoc and kdissoc, respectively) and dissociation constants as a measure of overall affinity (KD).

[3] = target: T3, full length native cynomolgus monkey PD-1 (on stably transfected CHO-K1 cells); native on cynomolgus monkey … (cynomolgus monkey, UniProt B0LAJ3 25-288); experiment: receptor occupancy by flow cytometry on cynomolgus monkey PBMCs (CD3+/IgG4+ cells, PE-labeled anti-IgG4), pre-incubation with a dilution series of the antibody [panel Cynomolgus monkey]
T3 construct: The same entry is used for the CHO-K1 transfectants and for PD-1 natively expressed on cynomolgus monkey PBMCs; also called cell-surface cynomolgus monkey PD-1
T3 sequence (B0LAJ3 entry or part of it limits assumed): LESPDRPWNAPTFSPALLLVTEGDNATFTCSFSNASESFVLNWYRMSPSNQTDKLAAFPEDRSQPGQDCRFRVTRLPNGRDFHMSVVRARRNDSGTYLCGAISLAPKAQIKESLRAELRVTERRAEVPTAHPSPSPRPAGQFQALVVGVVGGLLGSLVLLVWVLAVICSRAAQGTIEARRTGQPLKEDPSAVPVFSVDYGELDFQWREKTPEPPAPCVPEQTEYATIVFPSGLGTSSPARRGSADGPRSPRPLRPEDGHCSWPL
From the text: (§3) For these studies, PBMCs from healthy human donors or cynomolgus monkeys were used. Human PBMCs were isolated from buffy coats obtained from the Indiana Blood Center and cynomolgus monkey PBMCs were isolated from peripheral blood collected aseptically into sodium heparin obtained from Worldwide Primates, Inc. In both cases, separation was by Ficoll using Ficoll-Paque 1.077 and cryopreserved for later use.
(§4) On the day of the experiments, the cryopreserved cells were thawed and the cell concentration was adjusted to 2E6 cells/ml prior to resting overnight at 37° C. in a humidified CO₂ incubator. Cells were then pelleted and re-suspended in 1 ml of media and recounted. The cell concentration was adjusted to 4E5 cells/150 μl of media. Human AB Serum (40 μl/ml) was added to block Fc receptors. After centrifugation, the cells were incubated with exemplary anti-PD-1 antibody at 4° C. PBMCs were then washed three times before being split into two conditions. One set of cells was incubated with exemplary anti-PD-1 antibody and the other set with IgG4 for 30 minutes at 4° C. The PBMCs were then washed four times prior to being stained with FITC-labeled anti-CD3 and PE-labeled anti-IgG4 antibodies. […] The number of CD3+/IgG4+ cells was determined for each parameter and the percentage of occupancy for the exemplary anti-PD-1 antibody was determined as follows: […]

[4] = target: T1, full length native human PD-1 (on …); experiment: receptor occupancy by flow cytometry on human PBMCs (CD3+/IgG4+ cells, PE-labeled anti-IgG4), pre-incubation with a dilution series of the antibody [panel Human]
From the text: as §3, §4

[5] = target: T1, full length native human PD-1 (on …); experiment: flow cytometry competition on human PD-1 CHO-K1 cells; competitor PD-L2-mFc-DyL650
Description: (§5) In these studies, human PD-L1 and PD-L2 mouse IgG1 Fc fusion proteins were expressed, purified, and labeled with DyL650. The dose-response of binding of both PD-L1 and PD-L2 to PD-1 CHO-K1 cells was determined. To quantify blocking of ligand binding to PD-1 CHO-K1 cells, exemplary anti-PD-1 antibody or IgG4 control antibody in a 3-fold dilution series was pre-mixed with PD-L1-mFc-DyL650 or PD-L2-mFc-DyL650. The mixture was added to human PD-1 CHO-K1 cells (3E5 cells) and incubated at 4° C. Cells were washed once and re-suspended in the presence of propidium iodide and DyL650-PD-L1 or DyL650-PD-L2. Binding was analyzed on a BD FACSArray (BD Bioscience), excluding dead cells.

[6] = target: T1, full length native human PD-1 (on …); experiment: flow cytometry competition on human PD-1 CHO-K1 cells; competitor PD-L1-mFc-DyL650
Description: as §5

[7] = target: T4, dimeric human PD-1 fusion protein (fused with mouse IgG2a Fc) (human; mouse, UniProt Q15116 25-167, limits assumed); experiment: SPR (Biacore T200); antibody captured on anti-human IgG Fc chip, dimeric PD-1-mouse IgG2a Fc as analyte, 1:1 model
T4 construct: Soluble dimeric analyte in SPR; also called soluble PD-1 fusion; not shown: mouse IgG2a Fc
T4 sequence (Q15116 25-167 limits assumed): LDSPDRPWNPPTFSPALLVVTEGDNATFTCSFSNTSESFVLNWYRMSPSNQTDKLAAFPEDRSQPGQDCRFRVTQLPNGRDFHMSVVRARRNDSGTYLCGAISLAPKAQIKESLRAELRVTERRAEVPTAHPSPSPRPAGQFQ
Description: as §2

[8] = target: T2, dimeric cynomolgus monkey PD-1 fusion …; experiment: as above
Description: as §2

[9] = target: T3, full length native cynomolgus monkey …; experiment: flow cytometry on CHO-K1 cells stably expressing full length cynomolgus monkey PD-1; PE anti-human IgG4 detection
Description: as §1

- EC50 [1]: 2 nM
- fold difference in KD against human PD-1 [2]: < 2 fold
- EC50 (read off the curve) [3]: ~0.1 µg/mL
- EC50 (read off the curve) [4]: ~0.2 µg/mL
- IC50 [5]: 1.5 nM
- IC50 [6]: 1.8 nM
- Kd [7]: 0.3 nM
- koff [7]: 0.00017 s⁻¹
- kon [7]: 570000 M⁻¹ s⁻¹
- Kd [8]: 0.53 nM
- koff [8]: 0.00023 s⁻¹
- kon [8]: 430000 M⁻¹ s⁻¹
- EC50 [9]: 3.4 nM
B1: exemplary anti-PD-1 antibody (having heavy and light chains as set forth in SEQ ID NOs: 1 & 2, respectively) (antibody, human IgG4 S228P, kappa, V domains shown)
VH: EVQLLESGGGLVQPGGSLRLSCAASGFTFSSYDMSWVRQAPGKGLEWVSTISGGGSYTYYQDSVKGRFTISRDNSKNTLYLQMNSLRAEDTAVYYCASPYYAMDYWGQGTTVTVSS
VL: DIQLTQSPSFLSAYVGDRVTITCKASQDVGTAVAWYQQKPGKAPKLLIYWASTLHTGVPSRFSGSGSGTEFTLTISSLQPEDFATYYCQHYSSYPWTFGQGTKLEIKR
modifications: occupied N-glycosylation site at asparagine residue 293 of SEQ ID NO:1
notes: Humanized IgG4 (human IGHG4*01) with kappa light chain (IGKC*01); also called exemplary humanized monoclonal anti-PD-1 antibody; anti-PD-1 mAb
